Our source for the ratio of median inhibitory dose (ID50) values is US20050244902A1.

The assay concerns the target antiserum 98192. Nature of the assay: RIA, displacement of 125I-proBNP 1-10Tyr tracer from antiserum 98192. (Displacement assays read how much labelled ligand stays bound in the presence of the test substance.)

B1: N-terminal truncated fragment of human proBNP 1-21 with the N-terminal histidine removed (peptide)
peptide: PLGSPGSASDLETSGLQEQR
With B1, the ratio of median inhibitory dose (ID50) was determined as 0.001.

B2: N-terminal truncated fragment of human proBNP 1-21 with the two N-terminal amino acids, histidine and proline, removed (peptide)
peptide: LGSPGSASDLETSGLQEQR
For the molecule B2, the ratio of median inhibitory dose (ID50) amounted to 0.0006.
